Reference: paper PMC6097396, “Crystal structures of a llama VHH antibody BCD090-M2 targeting human ErbB3 receptor” (F1000Research, 2018)

Molecular target: T1, extracellular domain (residues 21-643) of the human ErbB3 receptor (Homo sapiens, UniProt P21860)
T1 construct: ErbB3 receptor (HER3), human, extracellular domain, residues 21-643; The ErbB3 gene fragment is followed by a hexahistidine tag and a FLAG-tag; also called HER3; extracellular domain of ErbB3; source: CHO-T-HC cells, transfected (pEE vector), purified from culture fluid (HisTrap HP, Superdex 200 SEC)
Assay: SPR; Biacore T200; ErbB3 extracellular domain immobilised on CM5 chip by amine coupling; BCD090-M2 injected at 1 uM down to 0.49 nM in 10 mM HEPES pH 7.4, 0.15 M NaCl, 50 ug/ml BSA; 37°C; equilibrium fit of response against concentration; mean of three experiments
Settings: both partners purified

T1 sequence (P21860 21-643): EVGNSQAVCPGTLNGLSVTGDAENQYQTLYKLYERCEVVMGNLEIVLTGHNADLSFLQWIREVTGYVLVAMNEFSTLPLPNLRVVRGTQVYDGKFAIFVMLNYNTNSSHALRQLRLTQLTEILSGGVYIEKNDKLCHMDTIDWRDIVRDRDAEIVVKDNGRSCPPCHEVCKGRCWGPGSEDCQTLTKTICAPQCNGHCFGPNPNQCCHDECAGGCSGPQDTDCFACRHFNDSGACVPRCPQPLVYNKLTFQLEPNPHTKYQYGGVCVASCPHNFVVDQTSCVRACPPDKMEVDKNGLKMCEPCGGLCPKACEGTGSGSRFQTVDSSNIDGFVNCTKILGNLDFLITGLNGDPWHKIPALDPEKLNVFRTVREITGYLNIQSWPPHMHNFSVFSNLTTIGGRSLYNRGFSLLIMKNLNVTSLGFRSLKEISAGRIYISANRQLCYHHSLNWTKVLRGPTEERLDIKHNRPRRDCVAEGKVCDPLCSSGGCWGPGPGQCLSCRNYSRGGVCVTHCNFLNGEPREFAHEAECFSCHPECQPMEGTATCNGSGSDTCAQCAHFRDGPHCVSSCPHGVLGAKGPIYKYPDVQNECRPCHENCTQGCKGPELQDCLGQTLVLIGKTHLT

B1: llama VHH antibody BCD090-M2 (VHH)
VHH: QVQLVQSGGGLVQAGGSLRLSCAFSGRTFSMYTMGWFRQAPGKEREFVAANRGRGLSPDIADSVNGRFTISRDNAKNTLYLQMDSLKPEDTAVYYCAADLQYGSSWPQRSSAEYDYWGQGTTVTVSS
notes: 128 residues in the PDB entries; a single additional N-terminal glycine is left from the TEV recognition site; Selected by phage display from immunized llamas; also called VHH fragment of the antibody BCD090-M2; not shown: His6, N-terminal, cleaved; SUMO, N-terminal, cleaved
  Kd: 15 ± 1 nM
